B1: Ubiquitin-protein ligase residues 30 to 86; numbered along this chain, Q05086 (parent)
chain: KHLIERYYHQLTEGCGNEACTNEFCASCPTFLRMDNNAAAIKALELYKINAKLCDPH

± gives the uncertainty stated by the source.

The variants in the data set derive from B1. The experiment in a line: abundance fitness (aPCA) (normalised: wild type 0, dead -1); higher = more abundant; growth selection in yeast, the domain comes from the species named. The conditions noted are these: Homo sapiens.
Consider G16R, for which the abundance fitness is -0.127 ± 0.049.

Take G16Q: the abundance fitness is -0.059 ± 0.078.

For G16K, the abundance fitness was -0.064 ± 0.082.

Consider L53Y, for which the abundance fitness is -0.062 ± 0.16.

For Y47V, the abundance fitness turned out to be 0.06 ± 0.053.

Take F31M: the abundance fitness is 0.057 ± 0.11.

For F31W, the abundance fitness was -0.188 ± 0.11.

As for F31Y, the abundance fitness is -0.06 ± 0.11.

On to T21Q, for which the abundance fitness was -0.046 ± 0.087.

Regarding T21Y, the abundance fitness is -0.458 ± 0.14.

T21G: the abundance fitness was -0.022 ± 0.049.

As for T21R, the abundance fitness is -0.038 ± 0.051.

As to T21W, the abundance fitness is -0.105 ± 0.07.

As to I41D, the abundance fitness was determined as 0.024 ± 0.087.

For the variant I41C, the abundance fitness is -0.028 ± 0.062.

On to I41Y, for which the abundance fitness is -0.123 ± 0.087.

Take I41L: the abundance fitness is -0.072 ± 0.055.

On to G14L, for which the abundance fitness was -0.967 ± 0.07.

Consider G14I, for which the abundance fitness is -1.02 ± 0.17.

In the case of G14Y, the abundance fitness was -1.02 ± 0.14.

In the case of G14E, the abundance fitness is -0.919 ± 0.1.

With G14S, the abundance fitness is -0.946 ± 0.075.

Turning to T12Q, the abundance fitness is -0.079 ± 0.071.

Consider T12G, for which the abundance fitness is -0.569 ± 0.055.

Regarding T12F, the abundance fitness was -0.204 ± 0.12.

For the variant T12R, the abundance fitness was -0.073 ± 0.052.

With A40D, the abundance fitness was 0.025 ± 0.11.

As for A40Y, the abundance fitness was -0.192 ± 0.2.

On to A40Q, for which the abundance fitness is -0.015 ± 0.11.

Regarding A40C, the abundance fitness worked out at 0.067 ± 0.11.

With N17I, the abundance fitness was -0.067 ± 0.046.

Take N17D: the abundance fitness was -0.04 ± 0.059.

With N17L, the abundance fitness was -0.071 ± 0.044.

With N17P, the abundance fitness was -0.091 ± 0.048.

For R33N, the abundance fitness was -0.109 ± 0.17.

R33S: the abundance fitness was -0.041 ± 0.082.

Regarding R33K, the abundance fitness was determined as 0.033 ± 0.16.

On to R33F, for which the abundance fitness was -0.415 ± 0.23.

L3V: the abundance fitness is -0.474 ± 0.058.

For the variant L3C, the abundance fitness was -0.005 ± 0.088.

On to L3A, for which the abundance fitness was -0.334 ± 0.055.

Take E18A: the abundance fitness is 0 ± 0.063.

E18H: the abundance fitness was 0.014 ± 0.097.

Regarding E18D, the abundance fitness is -0.004 ± 0.087.

Consider E18Q, for which the abundance fitness was found to be 0.076 ± 0.075.

As for E18C, the abundance fitness was -0.044 ± 0.089.

E18K: the abundance fitness is -0.089 ± 0.084.

For T30S, the abundance fitness is 0.016 ± 0.081.

For T30M, the abundance fitness is -0.153 ± 0.093.

Regarding T30C, the abundance fitness is -0.022 ± 0.11.

Regarding T30E, the abundance fitness was -0.055 ± 0.089.

On to T30R, for which the abundance fitness turned out to be 0.044 ± 0.074.

Consider T30W, for which the abundance fitness was -0.006 ± 0.12.

Take K42P: the abundance fitness is -0.735 ± 0.14.

Take K42H: the abundance fitness was -0.109 ± 0.14.

With K42A, the abundance fitness is -0.184 ± 0.068.

In the case of K42C, the abundance fitness was -0.282 ± 0.096.

In the case of K42L, the abundance fitness was -0.211 ± 0.066.

As for K42G, the abundance fitness was -0.343 ± 0.052.

On to K42N, for which the abundance fitness is -0.198 ± 0.11.

For K42M, the abundance fitness was -0.269 ± 0.086.

For C28Q, the abundance fitness is -0.128 ± 0.08.

In the case of C28E, the abundance fitness was -0.144 ± 0.062.

Take C28A: the abundance fitness was -0.019 ± 0.06.

In the case of C28P, the abundance fitness is -0.475 ± 0.08.

Regarding R6T, the abundance fitness is -0.017 ± 0.043.

For R6P, the abundance fitness was 0.011 ± 0.044.

As for F24E, the abundance fitness is -0.057 ± 0.068.

For the variant F24M, the abundance fitness was -0.031 ± 0.071.

Regarding F24H, the abundance fitness worked out at 0.028 ± 0.097.

As for E13S, the abundance fitness is 0.008 ± 0.056.

For E13R, the abundance fitness was -0.02 ± 0.056.

For Y8L, the abundance fitness was 0.045 ± 0.057.

Regarding Y8N, the abundance fitness is -0.097 ± 0.084.

For H9W, the abundance fitness was -0.055 ± 0.059.

H9Y: the abundance fitness is -0.123 ± 0.066.

Consider N36Q, for which the abundance fitness was -0.005 ± 0.18.

Consider N36W, for which the abundance fitness was -0.239 ± 0.098.

For N36F, the abundance fitness was -0.046 ± 0.11.

As to N36H, the abundance fitness was -0.152 ± 0.2.

For the variant A26Y, the abundance fitness is -0.076 ± 0.1.

Regarding A26K, the abundance fitness stood at 0.034 ± 0.093.

As for A26I, the abundance fitness is -0.097 ± 0.094.

On to A26Q, for which the abundance fitness is -0.156 ± 0.081.

With A26L, the abundance fitness was -0.143 ± 0.055.

For the variant K1E, the abundance fitness was -0.368 ± 0.31.

As for C15Y, the abundance fitness is -0.944 ± 0.1.

Consider C15A, for which the abundance fitness was -0.789 ± 0.062.

As to C15P, the abundance fitness is -1.09 ± 0.14.

Consider M34E, for which the abundance fitness is -0.053 ± 0.1.

On to M34S, for which the abundance fitness was -0.042 ± 0.08.

In the case of M34T, the abundance fitness is -0.129 ± 0.096.

On to A43F, for which the abundance fitness is -1.06 ± 0.21.

A43G: the abundance fitness was -0.156 ± 0.054.

Take A43S: the abundance fitness is 0.027 ± 0.059.

Take A43K: the abundance fitness was -0.242 ± 0.088.

For P29G, the abundance fitness was -0.088 ± 0.11.

Consider P29K, for which the abundance fitness was -0.014 ± 0.14.

Take P29V: the abundance fitness is -0.156 ± 0.09.

Take H2W: the abundance fitness was -0.542 ± 0.071.

With L46V, the abundance fitness was -0.06 ± 0.066.

In the case of L46D, the abundance fitness was -0.389 ± 0.11.

For L46E, the abundance fitness is -0.514 ± 0.076.

In the case of L46K, the abundance fitness is -0.754 ± 0.13.

L46G: the abundance fitness is -0.178 ± 0.057.

H57N: the abundance fitness came out at 0.104 ± 0.16.

On to H57Y, for which the abundance fitness came out at 0.017 ± 0.074.

With H57D, the abundance fitness is -0.051 ± 0.13.

As to H57E, the abundance fitness was -0.505 ± 0.35.

Consider I4V, for which the abundance fitness was -0.047 ± 0.054.

As for I4N, the abundance fitness is -0.042 ± 0.076.

I4M: the abundance fitness was -0.087 ± 0.079.

For the variant I4Q, the abundance fitness turned out to be 0.058 ± 0.089.

Consider A38D, for which the abundance fitness was -0.295 ± 0.14.

A38M: the abundance fitness is -0.164 ± 0.12.

Turning to A38N, the abundance fitness is -0.213 ± 0.2.

A38V: the abundance fitness was 0.029 ± 0.1.

As for P56A, the abundance fitness was -0.035 ± 0.064.

For N37M, the abundance fitness is -0.186 ± 0.14.

Regarding N37K, the abundance fitness was -0.107 ± 0.092.

Regarding L44K, the abundance fitness amounted to 0.108 ± 0.11.

Regarding L44W, the abundance fitness is -0.16 ± 0.061.

As to L44G, the abundance fitness was 0.057 ± 0.052.

In the case of L44D, the abundance fitness stood at 0.042 ± 0.14.

For the variant L44V, the abundance fitness is 0.017 ± 0.061.

In the case of C25E, the abundance fitness is -0.72 ± 0.21.

With C25P, the abundance fitness was -1.18 ± 0.23.

Turning to C25F, the abundance fitness was -0.791 ± 0.17.

With D35H, the abundance fitness is -0.213 ± 0.12.

As to D35I, the abundance fitness is -0.177 ± 0.1.

With D35P, the abundance fitness is -0.135 ± 0.1.

For the variant Y7L, the abundance fitness is -0.154 ± 0.06.

As to S27D, the abundance fitness is -0.131 ± 0.082.

Turning to S27V, the abundance fitness is -0.594 ± 0.056.

Turning to S27A, the abundance fitness was -0.072 ± 0.056.

Regarding S27R, the abundance fitness is -0.186 ± 0.05.

Q10T: the abundance fitness is -0.123 ± 0.07.

With Q10C, the abundance fitness is -0.274 ± 0.085.

For the variant E5I, the abundance fitness was -0.142 ± 0.049.

As to E5A, the abundance fitness was -0.116 ± 0.048.

On to E5Q, for which the abundance fitness is 0.037 ± 0.1.

N50D: the abundance fitness is 0.034 ± 0.11.

For the variant N50L, the abundance fitness was -0.143 ± 0.074.

As to N50V, the abundance fitness was -0.158 ± 0.07.

For the variant N50R, the abundance fitness is -0.033 ± 0.051.

Regarding N50W, the abundance fitness was -0.31 ± 0.064.

For N50E, the abundance fitness is -0.041 ± 0.096.

On to E45P, for which the abundance fitness is -0.873 ± 0.27.

Consider E23W, for which the abundance fitness is -0.134 ± 0.072.

As to A51Y, the abundance fitness was -0.195 ± 0.15.

Consider A51W, for which the abundance fitness is -0.029 ± 0.085.

As for A51C, the abundance fitness was -0.151 ± 0.1.

Regarding I49T, the abundance fitness amounted to 0.003 ± 0.31.

In the case of N22Y, the abundance fitness is -0.277 ± 0.088.

Regarding N22S, the abundance fitness was -0.033 ± 0.06.

For the variant N22T, the abundance fitness was -0.12 ± 0.071.

For A19R, the abundance fitness was -0.022 ± 0.051.

Regarding A19W, the abundance fitness is -0.073 ± 0.063.

Regarding A19D, the abundance fitness came out at 0.023 ± 0.078.

On to A19S, for which the abundance fitness is -0.008 ± 0.055.

For A19V, the abundance fitness was -0.013 ± 0.051.

Turning to A19I, the abundance fitness was -0.102 ± 0.11.

K48D: the abundance fitness was determined as 0.009 ± 0.1.

As to K48S, the abundance fitness was -0.161 ± 0.067.

On to K48N, for which the abundance fitness was found to be 0.012 ± 0.15.

For D55E, the abundance fitness was -0.017 ± 0.072.

Take D55Q: the abundance fitness is 0.011 ± 0.08.

The values above are taken from the Human Domainome abundance scans (Beltran et al. 2025).
